B1: RNA polymerase I subunit A34.5 (natural protein)
chain: MSKLSKDYVSDSDSDDEVISNEFSIPDGFKKCKHLKNFPLNGDNKKKAKQQQVWLIKFPSNVDISKLKSLPVDFESSTTMTIDKHDYKIMDDTDIESSLTQDNLSNMTLLVPSESKESLKIASTAKDNAPLQFDKVFSVSETAKIPAIDYSKVRVPRKDVPKVEGLKLEHFATGYDAEDFHVAEEVKENKKEPKKRSHHDDEEESSEKKKKKKEKREKREKKDKKDKKKKHRD
B2: RNA polymerase I subunit A49 (natural protein)
chain: MSVKRSVSEIEIESVQDQPSVAVGSFFKGFRAPSDTTFDLYKKKKSEKDEFVLHGENERLEYEGYTDSSSQASNQYVVGLFNPEKKSIQLYKAPVLVSKVVSKSSKNLRGPKIKSKSDTRPSALRNALGEAFGTKKAKKAIADLERNRIDSDKLTDSAIDIVDSVRTASKDLPTRAQLDEITSNDRPTPLANIDATDVEQIYPIESIIPKKELQFIRVSSILKEADKEKKLELFPYQNNSKYVAKKLDSLTQPSQMTKLQLLYYLSLLLGVYENRRVNNKTKLLERLNSPPEILVDGILSRFTVIKPGQFGRSKDRSYFIDPQNEDKILCYILAIIMHLDNFIVEITPLAHELNLKPSKVVSLFRVLGAIVKGATVAQAEAFGIPKSTAASYKIATMKVPFKLPEMTRRGRGPRR

Key:
Test in all cases: cross-linking
[1] = target: B2
[2] = target: T1, RNA polymerase I subunit AC40 (Saccharomyces cerevisiae, UniProt P07703 1-335)
T1 sequence: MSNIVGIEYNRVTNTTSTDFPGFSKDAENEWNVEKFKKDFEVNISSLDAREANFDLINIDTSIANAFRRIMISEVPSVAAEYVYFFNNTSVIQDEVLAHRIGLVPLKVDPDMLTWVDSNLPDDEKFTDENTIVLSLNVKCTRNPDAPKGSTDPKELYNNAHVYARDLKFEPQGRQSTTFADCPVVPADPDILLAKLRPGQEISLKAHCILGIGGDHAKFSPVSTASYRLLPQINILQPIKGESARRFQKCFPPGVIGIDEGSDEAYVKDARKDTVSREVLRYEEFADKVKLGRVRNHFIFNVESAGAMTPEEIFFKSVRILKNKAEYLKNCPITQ

[3] = target: T2, RNA polymerase I subunit A135 (Saccharomyces cerevisiae, UniProt P22138 1-1203)
T2 sequence: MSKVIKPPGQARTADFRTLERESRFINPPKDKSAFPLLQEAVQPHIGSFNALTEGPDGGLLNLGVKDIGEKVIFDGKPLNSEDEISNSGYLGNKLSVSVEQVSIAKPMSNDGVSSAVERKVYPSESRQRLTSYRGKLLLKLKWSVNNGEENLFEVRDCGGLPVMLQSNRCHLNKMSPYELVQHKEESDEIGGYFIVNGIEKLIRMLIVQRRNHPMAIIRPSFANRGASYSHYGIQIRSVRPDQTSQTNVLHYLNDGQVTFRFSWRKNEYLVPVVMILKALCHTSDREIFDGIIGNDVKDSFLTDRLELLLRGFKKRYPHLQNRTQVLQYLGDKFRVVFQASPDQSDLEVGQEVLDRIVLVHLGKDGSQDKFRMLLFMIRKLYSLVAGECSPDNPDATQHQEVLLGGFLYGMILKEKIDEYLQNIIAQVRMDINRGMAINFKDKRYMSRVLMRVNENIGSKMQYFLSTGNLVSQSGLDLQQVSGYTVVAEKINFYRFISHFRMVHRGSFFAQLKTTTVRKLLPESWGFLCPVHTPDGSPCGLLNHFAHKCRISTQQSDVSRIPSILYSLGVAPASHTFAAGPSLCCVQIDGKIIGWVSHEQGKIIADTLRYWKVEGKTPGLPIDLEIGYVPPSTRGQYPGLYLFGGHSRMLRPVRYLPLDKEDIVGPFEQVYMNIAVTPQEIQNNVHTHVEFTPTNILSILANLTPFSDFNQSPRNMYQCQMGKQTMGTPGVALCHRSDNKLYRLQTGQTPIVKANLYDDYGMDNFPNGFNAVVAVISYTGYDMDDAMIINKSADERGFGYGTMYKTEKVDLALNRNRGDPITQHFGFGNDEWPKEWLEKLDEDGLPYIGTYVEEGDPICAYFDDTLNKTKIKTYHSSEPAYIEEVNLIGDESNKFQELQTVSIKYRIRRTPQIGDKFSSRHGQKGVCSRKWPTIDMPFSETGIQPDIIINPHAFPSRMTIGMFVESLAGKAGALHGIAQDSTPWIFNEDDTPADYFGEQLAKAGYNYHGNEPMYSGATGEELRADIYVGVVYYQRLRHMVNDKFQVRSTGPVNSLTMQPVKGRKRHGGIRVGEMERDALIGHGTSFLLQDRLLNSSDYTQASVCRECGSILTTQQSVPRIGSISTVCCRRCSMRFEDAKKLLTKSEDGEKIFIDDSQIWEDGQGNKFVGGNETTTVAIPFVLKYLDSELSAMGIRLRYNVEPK

[4] = target: B1
[5] = target: RNA polymerase I subunit A190 (Saccharomyces cerevisiae, UniProt P10964 1-1664)
Sequence of RNA polymerase I subunit A190 (P10964 whole entry): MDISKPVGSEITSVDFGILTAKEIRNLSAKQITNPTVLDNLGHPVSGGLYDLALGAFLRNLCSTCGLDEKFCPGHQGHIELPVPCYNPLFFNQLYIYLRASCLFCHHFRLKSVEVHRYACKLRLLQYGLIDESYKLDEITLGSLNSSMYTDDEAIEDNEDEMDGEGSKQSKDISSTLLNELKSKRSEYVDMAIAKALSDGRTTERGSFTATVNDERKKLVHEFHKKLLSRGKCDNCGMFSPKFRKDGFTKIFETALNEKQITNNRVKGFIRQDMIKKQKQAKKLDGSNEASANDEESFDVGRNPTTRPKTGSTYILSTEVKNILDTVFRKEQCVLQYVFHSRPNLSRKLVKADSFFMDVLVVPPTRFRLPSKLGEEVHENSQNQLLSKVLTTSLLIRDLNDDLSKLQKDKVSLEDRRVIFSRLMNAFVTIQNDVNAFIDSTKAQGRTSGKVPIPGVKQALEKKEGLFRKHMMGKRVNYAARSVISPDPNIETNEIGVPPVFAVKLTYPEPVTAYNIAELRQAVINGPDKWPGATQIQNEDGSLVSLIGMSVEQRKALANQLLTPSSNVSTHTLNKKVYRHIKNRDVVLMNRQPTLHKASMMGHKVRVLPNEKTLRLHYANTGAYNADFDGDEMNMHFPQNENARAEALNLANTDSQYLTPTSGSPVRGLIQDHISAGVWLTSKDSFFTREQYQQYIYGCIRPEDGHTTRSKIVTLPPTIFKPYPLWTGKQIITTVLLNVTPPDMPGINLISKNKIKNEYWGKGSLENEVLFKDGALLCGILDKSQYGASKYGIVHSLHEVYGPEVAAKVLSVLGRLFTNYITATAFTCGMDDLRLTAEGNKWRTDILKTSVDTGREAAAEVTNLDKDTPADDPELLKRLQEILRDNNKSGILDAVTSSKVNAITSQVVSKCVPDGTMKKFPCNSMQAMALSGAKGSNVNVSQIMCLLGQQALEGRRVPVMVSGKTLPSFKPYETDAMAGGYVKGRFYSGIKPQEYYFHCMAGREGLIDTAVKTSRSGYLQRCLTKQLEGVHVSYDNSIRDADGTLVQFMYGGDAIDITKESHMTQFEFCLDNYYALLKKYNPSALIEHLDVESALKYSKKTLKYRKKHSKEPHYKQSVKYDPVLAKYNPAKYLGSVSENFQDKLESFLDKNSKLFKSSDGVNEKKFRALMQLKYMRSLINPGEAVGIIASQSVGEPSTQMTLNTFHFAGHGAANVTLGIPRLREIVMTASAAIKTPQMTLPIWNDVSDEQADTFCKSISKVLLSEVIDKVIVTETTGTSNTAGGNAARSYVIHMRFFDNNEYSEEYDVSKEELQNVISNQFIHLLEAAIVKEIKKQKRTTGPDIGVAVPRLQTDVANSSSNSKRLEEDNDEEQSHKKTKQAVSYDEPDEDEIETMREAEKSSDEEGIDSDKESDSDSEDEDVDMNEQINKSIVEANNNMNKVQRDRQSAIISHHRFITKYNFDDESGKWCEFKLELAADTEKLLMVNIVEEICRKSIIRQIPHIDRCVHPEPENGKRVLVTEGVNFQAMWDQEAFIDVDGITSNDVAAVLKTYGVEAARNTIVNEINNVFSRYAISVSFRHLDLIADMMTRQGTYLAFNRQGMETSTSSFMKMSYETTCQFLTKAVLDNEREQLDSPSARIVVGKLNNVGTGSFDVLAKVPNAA

| Binder | binding result [1] | binding result [3] | binding result [5] | other results |
| --- | --- | --- | --- | --- |
| RNA polymerase I subunit A43 (natural protein) MSQVKRANENRETARFIKKHKKQVTNPIDEKNGTSNCIVRVPIALYVSLAPMYLENPLQGVMKQHLNPLVMKYNNKVGGVVLGYEGLKILDADPLSKEDTSEKLIKITPDTPFGFTWCHVNLYVWQPQVGDVLEGYIFIQSASHIGLLIHDAFNASIKKNNIPVDWTFVHNDVEEDADVINTDENNGNNNNEDNKDSNGGSNSLGKFSFGNRSLGHWVDSNGEPIDGKLRFTVRNVHTTGRVVSVDGTLISDADEEGNGYNSSRSQAESLPIVSNKKIVFDDEVSIENKESHKELDLPEVKEDNGSEIVYEENTSESNDGESSDSD | binds | – | – | – |
| B1 | binds | binds | – | binding result [2]: binds |
| RNA polymerase I subunit AC19 (natural protein) MTEDIEQKKTATEVTPQEPKHIQEEEEQDVDMTGDEEQEEEPDREKIKLLTQATSEDGTSASFQIVEEDHTLGNALRYVIMKNPDVEFCGYSIPHPSENLLNIRIQTYGETTAVDALQKGLKDLMDLCDVVESKFTEKIKSM | – | – | – | binding result [4]: binds |
| RNA polymerase I subunit A12.2 (natural protein) MSVVGSLIFCLDCGDLLENPNAVLGSNVECSQCKAIYPKSQFSNLKVVTTTADDAFPSSLRAKKSVVKTSLKKNELKDGATIKEKCPQCGNEEMNYHTLQLRSADEGATVFYTCTSCGYKFRTNN | – | binds | binds | – |
| B2 | – | binds | binds | – |
| RNA polymerase subunit Rpb5 (natural protein) MDQENERNISRLWRAFRTVKEMVKDRGYFITQEEVELPLEDFKAKYCDSMGRPQRKMMSFQANPTEESISKFPDMGSLWVEFCDEPSVGVKTMKTFVIHIQEKNFQTGIFVYQNNITPSAMKLVPSIPPATIETFNEAALVVNITHHELVPKHIRLSSDEKRELLKRYRLKESQLPRIQRADPVALYLGLKRGEVVKIIRKSETSGRYASYRICM | binds | – | – | – |

From PMC3384336 (Nucleic Acids Research, 2012)
